One block for each binder: values may come before it. Positions of bridges follow the written chain, without caps; N, C: chain ends. Non-standard residues stand in square brackets, D forms with d. dPhe(2-CF3) = N[C@H](Cc1ccccc1C(F)(F)F)C(=O)O; dPhe(4-CN) = N#Cc1ccc(C[C@@H](N)C(=O)O)cc1; dPhe(3-Cl) = N[C@H](Cc1cccc(Cl)c1)C(=O)O; dPhe(2-Me) = Cc1ccccc1C[C@@H](N)C(=O)O; dPhe(4-F) = N[C@H](Cc1ccc(F)cc1)C(=O)O; dPhe(2-F) = N[C@H](Cc1ccccc1F)C(=O)O; Orn = NCCC[C@H](N)C(=O)O
Tests used:
[1] = target: T1, human melanocortin-4 receptor (human, UniProt P32245 1-332); test: cell-based or functional assay
melanocortin-1 receptor = target: T2, melanocortin-1 receptor (mouse (B-16 melanoma cells); in some …, UniProt Q01727 1-315); test: [I125]-NDP-α-MSH competition, MC1-R membranes
T2 construct: whole, on cells; membrane homogenates; also called MC1-R; mouse B16 MC1-R
Experimental: (§1) A competitive inhibition binding assay was performed for exemplified peptides according to the invention using membrane homogenates prepared from HEK-293 cells that express recombinant hMC4-R, hMC3-R, or hMC5-R, and from B-16 mouse melanoma cells (containing endogenous MC1-R). In some instances, HEK-293 cells that express recombinant hMC1-R were employed. Assays were performed in 96 well GF/B Millipore multiscreen filtration plates (MAFB NOB10) pre-coated with 0.5% bovine serum albumin (Fraction V). […] After incubation for 60 minutes at 37° C., the assay mixture was filtered and the membranes washed three times with ice-cold buffer. Filters were dried and counted in a gamma counter for bound radioactivity. […] Each assay was conducted in triplicate and the actual mean values are described, with results less than 0% reported as 0%. Ki values for test peptides of the present invention were determined using Graph-Pad Prism® curve-fitting software.

[2] = target: T1, human melanocortin-4 receptor; test: [I125]-NDP-α-MSH competition, hMC4-R HEK-293 membranes
Experimental: as §1

T1 sequence (P32245 whole entry): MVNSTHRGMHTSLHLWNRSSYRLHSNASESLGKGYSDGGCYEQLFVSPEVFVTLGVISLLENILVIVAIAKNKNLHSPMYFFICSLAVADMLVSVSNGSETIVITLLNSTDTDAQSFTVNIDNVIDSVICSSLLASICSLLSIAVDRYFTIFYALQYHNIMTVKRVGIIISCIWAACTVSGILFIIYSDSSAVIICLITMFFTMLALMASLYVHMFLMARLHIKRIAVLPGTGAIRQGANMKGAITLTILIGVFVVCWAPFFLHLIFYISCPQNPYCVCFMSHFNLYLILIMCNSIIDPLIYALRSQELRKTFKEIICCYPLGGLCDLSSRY
T2 sequence (Q01727 whole entry): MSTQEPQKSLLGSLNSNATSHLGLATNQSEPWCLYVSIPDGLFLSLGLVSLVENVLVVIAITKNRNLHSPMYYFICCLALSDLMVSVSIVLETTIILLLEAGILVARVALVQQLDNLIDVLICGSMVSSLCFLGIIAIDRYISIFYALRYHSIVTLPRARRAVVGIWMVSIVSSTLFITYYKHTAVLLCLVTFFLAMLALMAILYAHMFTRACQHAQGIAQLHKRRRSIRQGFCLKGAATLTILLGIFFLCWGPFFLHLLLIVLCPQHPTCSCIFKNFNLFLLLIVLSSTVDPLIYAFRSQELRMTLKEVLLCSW

EC50, cAMP, 0.1 ng/mL Doxycycline [1]: 6 nM | EC50, cAMP, 10 ng/mL Doxycycline [1]: 0.65 nM | Intrinsic Activity, cAMP, 0.1 ng/mL Doxycycline [1]: 13% | Intrinsic Activity, cAMP, 10 ng/mL Doxycycline [1]: 86% | Ki (melanocortin-1 receptor): 1750 nM | Ki [2]: 7 nM
Binder: XDQXRWK (N-terminal Ac; D-Arg 1; D-Phe(3-Cl) 4; lactam Asp 2-Lys 7; C-terminal NH2, also called No. 80) [Ac-D-Arg-cyclo(Asp-Gln-D-Phe(3-Cl)-Arg-Trp-Lys)-NH2]

EC50, cAMP, 0.1 ng/mL Doxycycline [1]: 2 nM | EC50, cAMP, 10 ng/mL Doxycycline [1]: 0.258 nM | Intrinsic Activity, cAMP, 0.1 ng/mL Doxycycline [1]: 31% | Intrinsic Activity, cAMP, 10 ng/mL Doxycycline [1]: 97% | Ki (melanocortin-1 receptor): 290 nM | Ki [2]: 3 nM
Binder: Ac-REQ[dPhe(3-Cl)]RW[Orn]-NH2 (lactam 2-7, also called No. 38) [Ac-Arg-cyclo(Glu-Gln-D-Phe(3-Cl)-Arg-Trp-Orn)-NH2]

EC50, cAMP, 0.1 ng/mL Doxycycline [1]: 0.8 nM | EC50, cAMP, 10 ng/mL Doxycycline [1]: 0.17 nM | Intrinsic Activity, cAMP, 0.1 ng/mL Doxycycline [1]: 54% | Intrinsic Activity, cAMP, 10 ng/mL Doxycycline [1]: 108% | Ki (melanocortin-1 receptor): 235 nM | Ki [2]: 4 nM
Binder: Ac-R[Orn]Q[dPhe(2-CF3)]RWE-NH2 (lactam 2-7, also called No. 115) [Ac-Arg-cyclo(Orn-Gln-D-Phe(2-CF3)-Arg-Trp-Glu)-NH2]

EC50, cAMP, 0.1 ng/mL Doxycycline [1]: 0.943 nM | EC50, cAMP, 10 ng/mL Doxycycline [1]: 0.11 nM | Intrinsic Activity, cAMP, 0.1 ng/mL Doxycycline [1]: 68% | Intrinsic Activity, cAMP, 10 ng/mL Doxycycline [1]: 100% | Ki (melanocortin-1 receptor): 405 nM | Ki [2]: 5 nM
Binder: Ac-R[Orn]N[dPhe(2-Me)]RWE-NH2 (lactam 2-7, also called No. 74) [Ac-Arg-cyclo(Orn-Asn-D-Phe(2-Me)-Arg-Trp-Glu)-NH2]

EC50, cAMP, 0.1 ng/mL Doxycycline [1]: 4 nM | EC50, cAMP, 10 ng/mL Doxycycline [1]: 0.2 nM | Intrinsic Activity, cAMP, 0.1 ng/mL Doxycycline [1]: 48% | Intrinsic Activity, cAMP, 10 ng/mL Doxycycline [1]: 85% | Ki (melanocortin-1 receptor): 395 nM | Ki [2]: 10 nM
Binder: XDQXRWK (N-terminal Ac; D-Arg 1; D-Phe(2-Cl) 4; lactam Asp 2-Lys 7; C-terminal NH2, also called No. 79) [Ac-D-Arg-cyclo(Asp-Gln-D-Phe(2-Cl)-Arg-Trp-Lys)-NH2]

EC50, cAMP, 0.1 ng/mL Doxycycline [1]: 1 nM | EC50, cAMP, 10 ng/mL Doxycycline [1]: 0.085 nM | Ki (melanocortin-1 receptor): 335 nM | Ki [2]: 9 nM
Binder: Ac-R[Orn]N[dPhe(2-F)]RWE-NH2 (lactam 2-7, also called No. 71) [Ac-Arg-cyclo(Orn-Asn-D-Phe(2-F)-Arg-Trp-Glu)-NH2]

EC50, cAMP, 0.1 ng/mL Doxycycline [1]: 1 nM | EC50, cAMP, 10 ng/mL Doxycycline [1]: 0.177 nM | Intrinsic Activity, cAMP, 0.1 ng/mL Doxycycline [1]: 43% | Intrinsic Activity, cAMP, 10 ng/mL Doxycycline [1]: 100% | Ki (melanocortin-1 receptor): 870 nM | Ki [2]: 5 nM
Binder: Ac-REN[dPhe(4-CN)]RW[Orn]-NH2 (lactam 2-7; also: acetate salt, acetate salt form; also called Ex 43) [Ac-Arg-cyclo(Glu-Asn-D-Phe(4-CN)-Arg-Trp-Orn)-NH2]

EC50, cAMP, 0.1 ng/mL Doxycycline [1]: 18 nM | EC50, cAMP, 10 ng/mL Doxycycline [1]: 0.725 nM | Intrinsic Activity, cAMP, 0.1 ng/mL Doxycycline [1]: 30% | Intrinsic Activity, cAMP, 10 ng/mL Doxycycline [1]: 97% | Ki (melanocortin-1 receptor): 730 nM | Ki [2]: 30 nM
B1: Ac-Arg-cyclo(Glu-Pro-D-Phe(4-F)-Arg-Trp-Orn)-OH (peptide)
peptide: Ac-REP[dPhe(4-F)]RW[Orn]-OH
modifications: lactam 2-7
SMILES: CC(=O)N[C@@H](CCCNC(=N)N)C(=O)N[C@H]1CCC(=O)NCCC[C@@H](C(=O)O)NC(=O)[C@H](Cc2c[nH]c3ccccc23)NC(=O)[C@H](CCCNC(=N)N)NC(=O)[C@@H](Cc2ccc(F)cc2)NC(=O)[C@@H]2CCCN2C1=O

EC50, cAMP, 10 ng/mL Doxycycline [1]: 113 nM | Intrinsic Activity, cAMP, 0.1 ng/mL Doxycycline [1]: 3% | Intrinsic Activity, cAMP, 10 ng/mL Doxycycline [1]: 77% | Ki (melanocortin-1 receptor): 10000 nM | Ki [2]: 647 nM
B2: Ac-Arg-cyclo(Glu-Asp-D-Phe(4-CN)-Arg-Trp-Orn)-NH2 (peptide)
peptide: Ac-RED[dPhe(4-CN)]RW[Orn]-NH2
modifications: lactam 2-7
SMILES: CC(=O)N[C@@H](CCCNC(=N)N)C(=O)N[C@H]1CCC(=O)NCCC[C@@H](C(N)=O)NC(=O)[C@H](Cc2c[nH]c3ccccc23)NC(=O)[C@H](CCCNC(=N)N)NC(=O)[C@@H](Cc2ccc(C#N)cc2)NC(=O)[C@H](CC(=O)O)NC1=O
notes: also called No. 106

Reference: patent US20100311648A1 (AstraZeneca / MedImmune, published 2010)
